# Measurements as given in article PMC3297495, “A rice transient assay system identifies a novel domain in NRR required for interaction with NH1/OsNPR1 and inhibition of NH1-mediated transcriptional activation” (Plant Methods, 2012).
# B1: YN:NH1 (natural protein, rice (Oryza sativa L), UniProt Q9FDY4 1-582, looked up)
# chain: MEPPTSHVTNAFSDSDSASVEEGGADADADVEALRRLSDNLAAAFRSPEDFAFLADARIAVPGGGGGGGDLLVHRCVLSARSPFLRGVFARRAAAAAGGGGEDGGERLELRELLGGGGEEVEVGYEALRLVLDYLYSGRVGDLPKAACLCVDEDCAHVGCHPAVAFMAQVLFAASTFQVAELTNLFQRRLLDVLDKVEVDNLLLILSVANLCNKSCMKLLERCLDMVVRSNLDMITLEKSLPPDVIKQIIDARLSLGLISPENKGFPNKHVRRIHRALDSDDVELVRMLLTEGQTNLDDAFALHYAVEHCDSKITTELLDLALADVNHRNPRGYTVLHIAARRREPKIIVSLLTKGARPADVTFDGRKAVQISKRLTKQGDYFGVTEEGKPSPKDRLCIEILEQAERRDPQLGEASVSLAMAGESLRGRLLYLENRVALARIMFPMEARVAMDIAQVDGTLEFNLGSGANPPPERQRTTVDLNESPFIMKEEHLARMTALSKTVELGKRFFPRCSNVLDKIMDDETDPVSLGRDTSAEKRKRFHDLQDVLQKAFHEDKEENDRSGLSSSSSSTSIGAIRPRR
# Key:
# Gal4:rLG2 = Gal4:rLG2 (rice (Oryza sativa L)); assay: cell-based or functional assay
# Gal4:rTGA2.1 = Gal4:rTGA2.1 (rice (Oryza sativa L)); assay: cell-based or functional assay
binder,measurement,setting,value
B1,UAS-Luc reporter (Luc/Gus) in rice protoplasts: Gal4:rLG2 with untagged NH1 (Ubi-NH1) against Gal4:rLG2 alone (Figure 1),Gal4:rLG2,~2 fold
same,UAS-Luc reporter (Luc/Gus) in rice protoplasts: Gal4:rLG2 with untagged NH1 (Ubi-NH1) against Gal4:rLG2 alone (Figure 4A),Gal4:rLG2,~3 fold
same,UAS-Luc reporter (Luc/Gus) in rice protoplasts: Gal4:rTGA2.1 with untagged NH1 (Ubi-NH1) against Gal4:rTGA2.1 alone,Gal4:rTGA2.1,~2 fold
